# Measurements: PMC11921375, “Phenanthrene degradation by a flavoprotein monooxygenase from Phanerodontia chrysosporium” (Applied and Environmental Microbiology, 2025)
# T1: NahG (salicylate 1-monooxygenase) (Pseudomonas putida, UniProt P23262)
# T1 construct: full-length synthetic gene, C-terminal 6xHis, pET21a, E. coli BL21
# T1 sequence (P23262 2-434): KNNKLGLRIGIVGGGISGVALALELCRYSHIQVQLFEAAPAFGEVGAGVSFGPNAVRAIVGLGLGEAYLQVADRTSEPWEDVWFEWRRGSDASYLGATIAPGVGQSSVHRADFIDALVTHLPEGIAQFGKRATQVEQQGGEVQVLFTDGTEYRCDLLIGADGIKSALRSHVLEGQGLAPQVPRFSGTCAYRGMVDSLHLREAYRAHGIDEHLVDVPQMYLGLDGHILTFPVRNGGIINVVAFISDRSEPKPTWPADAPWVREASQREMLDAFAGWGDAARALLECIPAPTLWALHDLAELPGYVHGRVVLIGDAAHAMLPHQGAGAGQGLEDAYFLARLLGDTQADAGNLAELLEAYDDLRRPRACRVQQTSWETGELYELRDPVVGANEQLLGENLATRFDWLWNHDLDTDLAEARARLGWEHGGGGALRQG
# B1: NahG (salicylate 1-monooxygenase) (Pseudomonas putida) (protein)
# chain: T1 sequence (P23262 2-434)
# notes: full-length synthetic gene, C-terminal 6xHis, pET21a, E. coli BL21
# How the values were obtained:
# [1] = system: T2, FPMO11 (flavoprotein monooxygenase 11); assay: NAD(P)H oxidation at […] nm, initial velocity; type: biochemical, Phanerodontia chrysosporium; settings: apparent, 50 mM HEPES-NaOH pH 7.0, 30°C
# T2 construct: full-length, C-terminal 6xHis, pET21a, E. coli BL21; FAD flavoprotein
# [2] = system: T3, IDD1 (intradiol dioxygenase 1); assay: O2 consumption, Clark electrode; Michaelis-Menten fit; type: biochemical, Phanerodontia chrysosporium; settings: apparent; 50 mM Tris-HCl pH 8.0, air-saturated, superoxide dismutase added
# T3 construct: recombinant, E. coli
# [3] = system: T4, IDD2 (intradiol dioxygenase 2); assay: as above; type: biochemical, Phanerodontia chrysosporium; settings: apparent; 50 mM Tris-HCl pH 8.0, air-saturated, superoxide dismutase added
# T4 construct: recombinant, E. coli
# [4] = biological target: T1, NahG (salicylate 1-monooxygenase); assay: NAD(P)H oxidation at […] nm, initial velocity; type: biochemical; settings: apparent; co-substrate NADH varied, aromatic substrate not stated; 50 mM HEPES pH 8.0, 30°C
# [5] = substrate: O=C(O)c1ccc(Cl)cc1O; assay: purified protein; type: biochemical, Pseudomonas putida; settings: apparent, NAD(P)H co-substrate (NADH in results, NADPH in methods), 50 mM HEPES pH 8.0, 30°C
# [6] = substrate: O=C(O)c1cccc(O)c1O; assay: purified protein; type: biochemical, Pseudomonas putida; settings: apparent, NAD(P)H co-substrate (NADH in results, NADPH in methods), 50 mM HEPES pH 8.0, 30°C
# [7] = substrate: O=C(O)c1ccc(O)cc1O; assay: purified protein; type: biochemical, Pseudomonas putida; settings: apparent, NAD(P)H co-substrate (NADH in results, NADPH in methods), 50 mM HEPES pH 8.0, 30°C
# [8] = substrate: NC(=O)C1=CN([C@@H]2O[C@H](COP(=O)(O)OP(=O)(O)OC[C@H]3O[C@@H](n4cnc5c(N)ncnc54)[C@H](OP(=O)(O)O)[C@@H]3O)[C@@H](O)[C@H]2O)C=CC1; assay: purified protein; type: biochemical, Pseudomonas putida; settings: apparent, co-substrate NADPH varied, aromatic substrate not stated, 50 mM HEPES pH 8.0, 30°C, varied: cofactor
# [9] = substrate: O=C(O)c1cc(O)ccc1O; assay: purified protein; settings: apparent, NAD(P)H co-substrate (NADH in results, NADPH in methods), 50 mM HEPES pH 8.0, 30°C
molecule,measurement,setting,value
O=C(O)c1ccc(Cl)cc1O [4CSA],Km,[1]; NADPH co-substrate,120 ± 28 µM
"Oc1ccc2ccccc2c1O [1,2DHN]",Km,[2],480 ± 18 µM
same,Km,[3],520 ± 180 µM
O=C(O)c1c(O)ccc2ccccc12 [2H1N],Km,[1]; NADPH co-substrate,110 ± 25 µM
NC(=O)C1=CN([C@@H]2O[C@H](COP(=O)(O)OP(=O)(O)OC[C@H]3O[C@@H](n4cnc5c(N)ncnc54)[C@H](OP(=O)(O)O)[C@@H]3O)[C@@H](O)[C@H]2O)C=CC1 [NADPH],Km,"[1]; co-substrate NADPH varied, aromatic substrate not stated",150 ± 37 µM
O=C(O)c1cc(O)ccc1O [GA],Km,[1]; NADPH co-substrate,48 ± 45 µM
"O=C(O)c1cccc(O)c1O [2,3DHB]",Km,[1]; NADPH co-substrate,67 ± 1.8 µM
O=C(O)c1ccccc1O [SA],Km,[1]; NADPH co-substrate,30 ± 34 µM
NC(=O)C1=CN([C@@H]2O[C@H](COP(=O)(O)OP(=O)(O)OC[C@H]3O[C@@H](n4cnc5c(N)ncnc54)[C@H](O)[C@@H]3O)[C@@H](O)[C@H]2O)C=CC1 [NADH],Km,[4],27 ± 10 µM
same,Km,"[1]; co-substrate NADH varied, aromatic substrate not stated",170 ± 60 µM
"O=C(O)c1ccc(O)cc1O [2,4DHB]",Km,[1]; NADPH co-substrate,82 ± 9.7 µM
O=C(O)c1ccc2ccccc2c1O [1H2N],Km,[1]; NADPH co-substrate,100 ± 15 µM
O=C(O)c1cccc(-c2ccccc2)c1O [2H3PB],Km,[1]; NADPH co-substrate,290 ± 67 µM
O=C(O)c1c(O)cccc1-c1ccccc1 [2H6PB],Km,[1]; NADPH co-substrate,320 ± 84 µM
B1,Km,[5],51 ± 19 µM
same,kcat,[5],0.917 ± 0.4 s⁻¹
same,kcat/Km,[5],18300 M⁻¹ s⁻¹
same,Km,[6],120 ± 15 µM
same,kcat,[6],5.5 ± 0.567 s⁻¹
same,kcat/Km,[6],45000 M⁻¹ s⁻¹
same,Km,[7],70 ± 15 µM
same,kcat,[7],5.17 ± 0.467 s⁻¹
same,kcat/Km,[7],73300 M⁻¹ s⁻¹
same,Km,[8],69 ± 17 µM
same,kcat,[8],1.33 ± 0.583 s⁻¹
same,kcat/Km,[8],20000 M⁻¹ s⁻¹
same,Km,[9],110 ± 30 µM
same,kcat,[9],7 s⁻¹
same,kcat/Km,[9],61700 M⁻¹ s⁻¹
